Measured values as given in patent US20080313749A1.

Experiments:
[1] = molecular target: … (SEQ ID NO:104), scaffold-bound CCR5-derived peptide 1160; assay: peptide microarray ELISA, 2D7 at 1 µg/ml
[2] = molecular target: … (SEQ ID NO:109), scaffold-bound CCR5-derived peptide 1158; assay: peptide microarray ELISA, 2D7 at 1 µg/ml
[3] = molecular target: … (SEQ ID NO:107), scaffold-bound CCR5-derived peptide 1159; assay: peptide microarray ELISA, 2D7 at 1 µg/ml
[4] = molecular target: … (SEQ ID NO:102), scaffold-bound CCR5-derived peptide 443; assay: peptide microarray ELISA, 2D7 at 1 µg/ml
[5] = molecular target: … (SEQ ID NO:105), scaffold-bound CCR5-derived peptide 450; assay: peptide microarray ELISA, 2D7 at 1 µg/ml
[6] = molecular target: … (SEQ ID NO:101), scaffold-bound CCR5-derived peptide 447; assay: peptide microarray ELISA, 2D7 at 1 µg/ml
[7] = molecular target: … (SEQ ID NO:106), scaffold-bound CCR5-derived peptide 702; assay: peptide microarray ELISA, 2D7 at 1 µg/ml
[8] = molecular target: … (SEQ ID NO:108), scaffold-bound CCR5-derived peptide 719; assay: peptide microarray ELISA, 2D7 at 1 µg/ml
Sequence of … (SEQ ID NO:108), scaffold-bound CCR5-derived peptide 719 (peptide, as listed by the source): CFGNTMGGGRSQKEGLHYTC

[9] = molecular target: … (SEQ ID NO:103), scaffold-bound CCR5-derived peptide 449; assay: peptide microarray ELISA, 2D7 at 1 µg/ml
[10] = molecular target: … (SEQ ID NO:104), scaffold-bound CCR5-derived peptide 1160; assay: peptide microarray ELISA, 2D7 at 10 µg/ml
[11] = molecular target: … (SEQ ID NO:109), scaffold-bound CCR5-derived peptide 1158; assay: peptide microarray ELISA, 2D7 at 10 µg/ml
[12] = molecular target: … (SEQ ID NO:107), scaffold-bound CCR5-derived peptide 1159; assay: peptide microarray ELISA, 2D7 at 10 µg/ml
[13] = molecular target: … (SEQ ID NO:102), scaffold-bound CCR5-derived peptide 443; assay: peptide microarray ELISA, 2D7 at 10 µg/ml
[14] = molecular target: … (SEQ ID NO:105), scaffold-bound CCR5-derived peptide 450; assay: peptide microarray ELISA, 2D7 at 10 µg/ml
[15] = molecular target: … (SEQ ID NO:101), scaffold-bound CCR5-derived peptide 447; assay: peptide microarray ELISA, 2D7 at 10 µg/ml
[16] = molecular target: … (SEQ ID NO:106), scaffold-bound CCR5-derived peptide 702; assay: peptide microarray ELISA, 2D7 at 10 µg/ml
[17] = molecular target: … (SEQ ID NO:108), scaffold-bound CCR5-derived peptide 719; assay: peptide microarray ELISA, 2D7 at 10 µg/ml
[18] = molecular target: … (SEQ ID NO:103), scaffold-bound CCR5-derived peptide 449; assay: peptide microarray ELISA, 2D7 at 10 µg/ml
[19] = molecular target: … (SEQ ID NO:104), scaffold-bound CCR5-derived peptide 1160; assay: peptide microarray ELISA, 2D7 at 0.1 µg/ml
[20] = molecular target: … (SEQ ID NO:109), scaffold-bound CCR5-derived peptide 1158; assay: peptide microarray ELISA, 2D7 at 0.1 µg/ml
[21] = molecular target: … (SEQ ID NO:107), scaffold-bound CCR5-derived peptide 1159; assay: peptide microarray ELISA, 2D7 at 0.1 µg/ml
[22] = molecular target: … (SEQ ID NO:102), scaffold-bound CCR5-derived peptide 443; assay: peptide microarray ELISA, 2D7 at 0.1 µg/ml
[23] = molecular target: … (SEQ ID NO:105), scaffold-bound CCR5-derived peptide 450; assay: peptide microarray ELISA, 2D7 at 0.1 µg/ml
[24] = molecular target: … (SEQ ID NO:101), scaffold-bound CCR5-derived peptide 447; assay: peptide microarray ELISA, 2D7 at 0.1 µg/ml
[25] = molecular target: … (SEQ ID NO:106), scaffold-bound CCR5-derived peptide 702; assay: peptide microarray ELISA, 2D7 at 0.1 µg/ml
[26] = molecular target: … (SEQ ID NO:108), scaffold-bound CCR5-derived peptide 719; assay: peptide microarray ELISA, 2D7 at 0.1 µg/ml
[27] = molecular target: … (SEQ ID NO:103), scaffold-bound CCR5-derived peptide 449; assay: peptide microarray ELISA, 2D7 at 0.1 µg/ml

anti-CCR5 antibody 2D7
microarray ELISA signal (absorbance 405 nm, CCD camera) [1]: 2470
microarray ELISA signal (absorbance 405 nm, CCD camera) [2]: 416
microarray ELISA signal (absorbance 405 nm, CCD camera) [3]: 1150
microarray ELISA signal (absorbance 405 nm, CCD camera) [4]: 2640
microarray ELISA signal (absorbance 405 nm, CCD camera) [5]: 2360
microarray ELISA signal (absorbance 405 nm, CCD camera) [6]: 2710
microarray ELISA signal (absorbance 405 nm, CCD camera) [7]: 1580
microarray ELISA signal (absorbance 405 nm, CCD camera) [8]: 678
microarray ELISA signal (absorbance 405 nm, CCD camera) [9]: 2610
microarray ELISA signal (absorbance 405 nm, CCD camera) [10]: 2760
microarray ELISA signal (absorbance 405 nm, CCD camera) [11]: 2380
microarray ELISA signal (absorbance 405 nm, CCD camera) [12]: 2640
microarray ELISA signal (absorbance 405 nm, CCD camera) [13]: 3090
microarray ELISA signal (absorbance 405 nm, CCD camera) [14]: 2850
microarray ELISA signal (absorbance 405 nm, CCD camera) [15]: 2940
microarray ELISA signal (absorbance 405 nm, CCD camera) [16]: 2790
microarray ELISA signal (absorbance 405 nm, CCD camera) [17]: 2820
microarray ELISA signal (absorbance 405 nm, CCD camera) [18]: 2890
microarray ELISA signal (absorbance 405 nm, CCD camera) [19]: 315
microarray ELISA signal (absorbance 405 nm, CCD camera) [20]: 132
microarray ELISA signal (absorbance 405 nm, CCD camera) [21]: 213
microarray ELISA signal (absorbance 405 nm, CCD camera) [22]: 148
microarray ELISA signal (absorbance 405 nm, CCD camera) [23]: 107
microarray ELISA signal (absorbance 405 nm, CCD camera) [24]: 261
microarray ELISA signal (absorbance 405 nm, CCD camera) [25]: 68
microarray ELISA signal (absorbance 405 nm, CCD camera) [26]: 113
microarray ELISA signal (absorbance 405 nm, CCD camera) [27]: 99
